Data reported in patent CN117836322A (PASTEUR INSTITUT, dated 2024).
Where a chain is given by its changes, count along the chain named.

B1: Cv2.1169 IgG1 (antibody, V domains shown)
VH: QVQLVQSGPEVKKPGTSVKVSCKASGFTFTTSAVQWVRQARGQRLEWIGWIVVGSGNTNYAQKFQERVTITRDMSTTTAYMELSSLRSEDTAVYYCAAPYCSGGTCLDGFDIWGQGTMVTVSS
VL: not shown
B2: Cv2.1353 IgG1 (antibody, V domains shown)
VH: EVQLVESGGGLVQPGGSLRLSCAASGVTVSSNYMNWVRQAPGKGLEWVSVIYSGGSTFYADSVKGRFIISRDNSKNTLYLQMNSLKTEDTAVYYCARDLGPMGFDIWGQGTMVTVSS
VL: DIQMTQSPSFLSASVGDRVTITCRASQGISSYLAWYQQKPGKAPKLLIYAASTLQSGVPSRFSGSGSGTEFTLTISSLQPEDFATYYCQQLNSDPPVTFGPGTKVDIKR
B3: Cv2.3194 IgG1 (antibody, V domains shown)
VH: EVQLVESGGGLIQPGGSLRLSCAASGITVTSNYMSWVRQAPGKGLEWVSVIYPGGSTFYADSVKGRFTISRDNSKNTLYLQMNSLRAEDTAVYYCARDLVVYGMDVWGQGTTVTVSS
VL: EIVLTQSPGTLSLSPGERATLSCRASQSVSSSYLAWYQQKPGQAPRLLIYGASSRATGIPGRFSGSGSGTDFTLTISRLEPEDFAIYYCQQGVTFGGGTKVEIKR
B4: Cv2.3235 IgG1 (antibody, V domains shown)
VH: B3 VH with I27F, T30S, S31R, P53S, L99G, V100D, V101Y
VL: DIQMTQSPSFLSASVGDRVTITCRASQGISSFLAWYQQKPGKAPKLLIYGASTLQSGVTSRFSGSGSGTEFTLTISSLQPEDFATYYCQRLDSYPPITFGQGTRLEIKR
B5: Cv2.5213 IgG1 (antibody, V domains shown)
VH: B3 VH with I27F, T30S, V50L, P53S, F58Y, V100N, V101Y, T111A
VL: B2 VL with F10S, E70D, N92D, D94Y, P95S, V97F

What follows are binders tested against T1, SARS-CoV-2 S1结构域 (SARS-CoV-2, UniProt P0DTC2 16-681) (assay: SPR (Biacore), antibody coupled to CM5 chip, viral protein as analyte, 25°C).
T1 construct: also called S1亚基

Question: B1 was tested. Which Kd did it give?
Answer: < 1000 nM

Question: How did the Kd turn out when B2 was run?
Answer: < 1000 nM

Question: Which Kd does the source give for B3 here?
Answer: < 1000 nM

Question: Which Kd does the source give for B4 here?
Answer: < 1000 nM

Question: With B5 as the binder, how does the Kd read?
Answer: < 1000 nM
